In article PMC9226187, “Probing TDP-43 condensation using an in silico designed aptamer” one finds Kd data, which are given here for two molecules.

In this series the target is TDP-43 RRM1-2 (UniProt Q13148 102-269). Description: BLI; BLI: 10 mM potassium phosphate pH 7.2, 150 mM KCl, 0.01% Tween20, 25 °C; biotin-RNA on streptavidin sensors, protein 20 nM-20 µM; PAINT in PBS. The note with it: protein: recombinant, tags: His6-SUMO tag cleaved (TEV). In general terms: BLI is a label-free optical method that tracks binding on a fibre tip over time.
Chain of TDP-43 RRM1-2 (Q13148 102-269): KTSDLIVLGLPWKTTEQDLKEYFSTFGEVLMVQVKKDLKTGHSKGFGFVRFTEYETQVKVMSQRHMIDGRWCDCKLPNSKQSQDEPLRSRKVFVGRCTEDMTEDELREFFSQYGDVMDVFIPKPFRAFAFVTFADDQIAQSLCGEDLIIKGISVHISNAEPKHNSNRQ

In general, Kd refers to the equilibrium constant for the complex coming apart. For the molecule AGCAACACCG (ssRNA) [nApt-1], the Kd (label: 5' biotin) came to 1730 nM.

As for CGGUGUUGCU (ssRNA) [Apt-1], the Kd (label: 3' biotin, linear, single-stranded) is 100 ± 10 nM.
